The chains are these.
B1: Cv2.1353 IgG1 (antibody, V domains shown)
VH: EVQLVESGGGLVQPGGSLRLSCAASGVTVSSNYMNWVRQAPGKGLEWVSVIYSGGSTFYADSVKGRFIISRDNSKNTLYLQMNSLKTEDTAVYYCARDLGPMGFDIWGQGTMVTVSS
VL: DIQMTQSPSFLSASVGDRVTITCRASQGISSYLAWYQQKPGKAPKLLIYAASTLQSGVPSRFSGSGSGTEFTLTISSLQPEDFATYYCQQLNSDPPVTFGPGTKVDIKR
B2: Cv2.3194 IgG1 (antibody, V domains shown)
VH: EVQLVESGGGLIQPGGSLRLSCAASGITVTSNYMSWVRQAPGKGLEWVSVIYPGGSTFYADSVKGRFTISRDNSKNTLYLQMNSLRAEDTAVYYCARDLVVYGMDVWGQGTTVTVSS
VL: EIVLTQSPGTLSLSPGERATLSCRASQSVSSSYLAWYQQKPGQAPRLLIYGASSRATGIPGRFSGSGSGTDFTLTISRLEPEDFAIYYCQQGVTFGGGTKVEIKR
B3: Cv2.5213 IgG1 (antibody, V domains shown)
VH: EVQLVESGGGLIQPGGSLRLSCAASGFTVSSNYMSWVRQAPGKGLEWVSLIYSGGSTYYADSVKGRFTISRDNSKNTLYLQMNSLRAEDTAVYYCARDLNYYGMDVWGQGATVTVSS
VL: DIQMTQSPSSLSASVGDRVTITCRASQGISSYLAWYQQKPGKAPKLLIYAASTLQSGVPSRFSGSGSGTDFTLTISSLQPEDFATYYCQQLDSYSPFTFGPGTKVDIKR
B4: Cv2.3235 IgG1 (antibody, V domains shown)
VH: EVQLVESGGGLIQPGGSLRLSCAASGFTVSRNYMSWVRQAPGKGLEWVSVIYSGGSTFYADSVKGRFTISRDNSKNTLYLQMNSLRAEDTAVYYCARDGDYYGMDVWGQGTTVTVSS
VL: DIQMTQSPSFLSASVGDRVTITCRASQGISSFLAWYQQKPGKAPKLLIYGASTLQSGVTSRFSGSGSGTEFTLTISSLQPEDFATYYCQRLDSYPPITFGQGTRLEIKR
B5: Cv2.1169 IgG1 (antibody, V domains shown)
VH: QVQLVQSGPEVKKPGTSVKVSCKASGFTFTTSAVQWVRQARGQRLEWIGWIVVGSGNTNYAQKFQERVTITRDMSTTTAYMELSSLRSEDTAVYYCAAPYCSGGTCLDGFDIWGQGTMVTVSS
VL: not shown

The record followed here is patent publication CN117836322A (PASTEUR INSTITUT, dated 2024).

The target of the assay is T1, SARS-CoV-2 S1结构域 (SARS-CoV-2, UniProt P0DTC2 16-681).
T1 construct: also called S1亚基
Put plainly: SPR (Biacore), antibody coupled to CM5 chip, viral protein as analyte, 25°C.
Take B1: the Kd was < 1000 nM.

On to B2, for which the Kd is < 1000 nM. The figure for B3 is < 1000 nM; for B4 it is < 1000 nM; for B5 it is < 1000 nM.
